Laboratory results: US20240352105A1, “COMPOSITIONS AND METHODS FOR NEUTRALIZING ANTIGENS” (PACAGEN, INC, priority 2023, published 2024)
Values joined by “and” are separate entries in the source; they are usually repeats but may differ in a detail not shown here. Equal values may be shown once.

Legend:
[1] = system: biotinylated anti-His antibody; experiment: Recombinant Can f1-His ELISA binding assay
Method: (§1) In order to obtain single variable domain on heavy chain, i.e., VHH, specific for dog allergen Can f1, a recombinant His-tagged Can f1 was prepared, which reached high purity, as shown via SDS-Page Western blotting in FIG. 4. To confirm this, an ELISA was performed measuring optical density when the recombinant Can f1-His is incubated with a biotinylated anti-His antibody. As summarized in Table 4, the recombinant Can f1-His was effectively bound by the antibody.

[2] = target: T1, recombinant His-tagged Can f1 (dog (Canis familiaris), UniProt O18873 19-174); experiment: ELISA, antigen coated
T1 construct: also called Can f1-His; recombinant Can f1; not shown: His tag
T1 sequence (O18873 19-174 limits assumed): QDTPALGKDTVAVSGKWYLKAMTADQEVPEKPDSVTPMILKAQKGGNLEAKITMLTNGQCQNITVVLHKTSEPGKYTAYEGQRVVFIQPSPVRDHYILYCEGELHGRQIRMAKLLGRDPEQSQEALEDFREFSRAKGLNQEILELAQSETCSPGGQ
Method: (§2) 2 microgram per milliliter (μg/mL) target antigen is coated in a 96-well plate and ELISA assay is performed after incubation with candidate VHHs. The binding EC50 of each clone is calculated using Prism GraphPad. The positive control antibody is involved as an internal control.
(§3) Isolated VHH clones were further validated by performing an ELISA assay as described in Example 1. Metrics of thermostability including melting temperature (Tₘ), onset temperature (Tₒₙₛₑₜ), and temperature of aggregation (Tagg), were also tested with increasing temperature in the range of 20° C.-95° C. at the speed of 1° C./min. The individual binding curves are shown for each candidate in FIGS. 5B-5H.

[3] = Thermostability (Tm, Tonset, Tagg) by Nanotemper DSF; type: physicochemical; parameters: key to Tm2 / Tagg / Tm1 / Tm / Tm3 / Tonset / Tonset ø (mean) / Tagg ø (mean): temperatures in °C; conditions: for Tm1: first melting point; for Tm2: second melting point; for Tm: single melting point
Method: as §3, with “(Tm),” for “(Tₘ),”, “(Tonset),” for “(Tₒₙₛₑₜ),”, “C./min. These measurements were performed using a Nanotemper DSF. When applicable, Tm1 refers to the first melting point observed, Tm2 refers to the second melting point observed, etc., Sequence information for the VHH clones and the binding assay results are summarized in Table 3.” for “C./min.”, “3B-3I.” for “5B-5H.”
as §3, with “(Tm),” for “(Tₘ),”, “(Tonset),” for “(Tₒₙₛₑₜ),”
as §3, with “(Tm),” for “(Tₘ),”, “(Tonset),” for “(Tₒₙₛₑₜ),”, “7B-7P.” for “5B-5H.”
The detailed thermostability graphs used to determine the Tm, Tonset, and Tagg are illustrated in FIGS. 19A-19I and raw data is summarized in Table 23. Any subsequent melting points observed (Tm1, Tm2, Tm3, etc.) are separated by commas.

[4] = system: known Der p2 antibody (clone 6OY4); experiment: Recombinant Der p2-His ELISA binding assay
Method: In order to obtain single variable domain on heavy chain, i.e., VHH, specific for dust mite allergen Der p2, a recombinant His-tagged Der p2 was prepared, which reached high purity, as shown via SDS-Page Western blotting in FIG. 2. To confirm this, an ELISA was performed. Briefly, the Der p2-HIS was coated onto an ELISA plate and a known Der p2 antibody (clone 6OY4) was added. A secondary detection antibody capable of binding to the Der p2 antibody was then added. The secondary detection antibody was conjugated to a horseradish peroxidase, which can be utilized to produce a colorimetric reaction. Then, optical density was measured. As summarized in Table 1, the recombinant Der p2-His was effectively bound by the antibody.

[5] = system: biotinylated anti-His antibody; experiment: Recombinant Can f2-His ELISA binding assay
Method: as §1, with “f2,” for “f1,”, “f2” for “f1”, “6.” for “4.”, “f2-His” for “f1-His”, “7,” for “4,”

Fel D1 = target: T2, Fel D1 (Felis catus, UniProt P30438); experiment: ELISA binding assay of anti-Fel d1 VHH clones on Fel D1 epitopes; parameters: species or system cat
T2 construct: made in house; host or cells: chemically synthesized peptides
Method: as §2
Four distinct epitopes of Fel D1 were selected to be used for further identification. Peptides were synthesized for the four epitopes for VHH identification.
Isolated VHH clones were further validated by performing an ELISA assay as described in Example 1. Binding results are shown in FIG. 15B-15D for the epitope of SEQ ID NO: 61. Binding results are shown in FIG. 16 for the epitope of SEQ ID NO: 59. Binding results are shown in FIG. 17A-17E for the epitope of SEQ ID NO: 60. Binding results are shown in FIG. 18 for the epitope of SEQ ID NO: 58.

[6] = anti-Can f1 VHH, 20° C.-95° C. at 1° C./min
[7] = anti-Can f1 VHH, in °C (unit assumed)
[8] = Epitope Recognized ENARILKNCVDAKM (SEQ ID NO: 61)
[9] = Average of two replicates, anti-Fel d1 VHH
[10] = Average of two replicates, anti-Fel d1 VHH, in °C (unit assumed)
[11] = Replicate 1, in °C (unit assumed)
[12] = Replicate 2, in °C (unit assumed)
[13] = anti-Fel d1 VHH, in °C (unit assumed)

Can f1-His: recombinant His-tagged dog allergen Can f1
OD at 450 nm ([1]; Can f1-His Concentration 0.00064 μg/mL): 0.07 and 0.11
OD at 450 nm ([1]; Can f1-His Concentration 0.0032 μg/mL): 0.09 and 0.11
OD at 450 nm ([1]; Can f1-His Concentration 0.016 μg/mL): 0.09 and 0.12
OD at 450 nm ([1]; Can f1-His Concentration 0.08 μg/mL): 0.15 and 0.16
OD at 450 nm ([1]; Can f1-His Concentration 0.4 μg/mL): 0.21 and 0.24
OD at 450 nm ([1]; Can f1-His Concentration 2 μg/mL): 0.95 and 1.03
OD at 450 nm ([1]; Can f1-His Concentration 10 μg/mL): 2.84 and 2.92

B1: SDAB22112-2-B06 (VHH)
VHH: QVQLVESGGGLVQPGGSLRLSCAASGFTFRLAAMGWYRQAPEKEREWVASITGPGTDTNYADSVKGRFTVSRDNAKNTVYLQMNSLKPEDTAVYYCRGMGYWGKGTLVTVSS
notes: anti-Can f1 alpaca VHH
EC50 [2]: 0.144 µg/mL
Tagg [3, 6]: 48.00
Tm1 [3, 7]: 56.38
Tm2 [3, 7]: 63.74
Tm3 ([3]; anti-Can f1 VHH, third melting point, in °C (unit assumed)): 70.13

B2: SDAB22112-1-D12 (VHH)
VHH: AVQLVDSGGGLVQAGGSLRLACAASGRTFDTYAVGWFRQAPGKERDVVASITWTSGSTWYADFVKGRFTISKDNAKNTVYLQMNNLSPEDTAVYYCGARNQIYTRWDSWGQGTQVTVSS
notes: anti-Can f1 alpaca VHH
EC50 [2]: 4.01 µg/mL
Tagg [3, 6]: 49.15
Tm [3, 7]: 57.78

B3: Der p2-His: recombinant His-tagged dust mite allergen Der p2 (protein)
chain: DQVDVKDCANHEIKKVLVPGCHGSEPCIIHRGKPFQLEAVFEANQNTKTAKIEIKASIDGLEVDVPGIDPNACHYMKCPLVKGQQYDIKYTWNVPKIAPKSENVVVTVKVMGDDGVLACAIATHAKIRD
modifications: left off: small tags and cut ends
OD at 450 nm ([4]; Der p2-His Concentration 0.00064 μg/mL): 0.07 and 0.09
OD at 450 nm ([4]; Der p2-His Concentration 0.0032 μg/mL): 0.09 and 0.10
OD at 450 nm ([4]; Der p2-His Concentration 0.016 μg/mL): 0.11 and 0.12
OD at 450 nm ([4]; Der p2-His Concentration 0.08 μg/mL): 0.38 and 0.35
OD at 450 nm ([4]; Der p2-His Concentration 0.4 μg/mL): 1.31 and 1.37
OD at 450 nm ([4]; Der p2-His Concentration 2 μg/mL): 4.06 and 4.02
OD at 450 nm ([4]; Der p2-His Concentration 10 μg/mL): 4.61 and 4.57

B4: Can f2-His: recombinant His-tagged dog allergen Can f2 (protein)
chain: QEGNHEEPQGGLEELSGRWHSVALASNKSDLIKPWGHFRVFIHSMSAKDGNLHGDILIPQDGQCEKVSLTAFKTATSNKFDLEYWGHNDLYLAEVDPKSYLILYMINQYNDDTSLVAHLMVRDLSRQQDFLPAFESVCEDIGLHKDQIVVLSDDDRCQGSRD
modifications: left off: small tags and cut ends
OD at 450 nm ([5]; Can f2-His Concentration 0.00064 μg/mL): 0.10 and 0.11
OD at 450 nm ([5]; Can f2-His Concentration 0.0032 μg/mL): 0.11
OD at 450 nm ([5]; Can f2-His Concentration 0.016 μg/mL): 0.10 and 0.11
OD at 450 nm ([5]; Can f2-His Concentration 0.08 μg/mL): 0.12 and 0.13
OD at 450 nm ([5]; Can f2-His Concentration 0.4 μg/mL): 0.22 and 0.19
OD at 450 nm ([5]; Can f2-His Concentration 2 μg/mL): 0.57 and 0.65
OD at 450 nm ([5]; Can f2-His Concentration 10 μg/mL): 1.12 and 1.07

B5: SDAB22110-1-1-B9-1: anti-Fel d1 VHH clone, SEQ ID NO: 50 (protein)
VHH: DVQLVESGGGWVQPGGSLRLSCAASGFTFTSYALSWVRQAPGKGLEWVSLADARGTSTTYADSVKGRFTISKDNPRNTLYLLMNSLKPEDTAVYYCTKGFDGNWYPDYDYWGQGTQVTVSS
EC50 (Fel D1; [8]): 14.440 µg/mL
Tagg ø (mean) [3, 9]: 41.73
Tonset ø (mean) [3, 9]: 42.07
Tm ø (mean), first melting point (Tm1) [3, 10]: 54.03
Tm ø (mean), second melting point (Tm2) [3, 10]: 63.20
Tagg ([3]; Replicate 1): 41.73
Tonset ([3]; Replicate 1): 42.11
Tm, first melting point (Tm1) [3, 11]: 53.95
Tm, second melting point (Tm2) [3, 11]: 63.26
Tagg ([3]; Replicate 2): 41.73
Tonset ([3]; Replicate 2): 42.04
Tm, first melting point (Tm1) [3, 12]: 54.10
Tm, second melting point (Tm2) [3, 12]: 63.15
Tagg ([3]; anti-Fel d1 VHH): 41.73
aggregates ([3]; anti-Fel d1 VHH): Possible
Tm1 [3, 13]: 54.03
Tm2 [3, 13]: 63.20

B6: SDAB22110-1-1-E4: anti-Fel d1 VHH clone, SEQ ID NO: 51 (protein)
VHH: QLQLVESGGGLVQPGGSLRLSCTASGFTFSTAGTSWYRQSPGKARKLVAELSRIGGIANYADSVKGRFTISRDNTRNTVYLQMNSLKPEDTAVYYCKVVTNRNYGFTYWGQGTQVTVSS
EC50 (Fel D1; [8]): 3.305 µg/mL
Tagg ø (mean) [3, 9]: 39.61
Tonset ø (mean) [3, 9]: 40.64
Tm ø (mean), first melting point (Tm1) [3, 10]: 50.69
Tagg ([3]; Replicate 1): 39.62
Tonset ([3]; Replicate 1): 40.60
Tm, first melting point (Tm1) [3, 11]: 50.73
Tagg ([3]; Replicate 2): 39.61
Tonset ([3]; Replicate 2): 40.64
Tm, first melting point (Tm1) [3, 12]: 50.66
Tagg ([3]; anti-Fel d1 VHH): 42.78
aggregates ([3]; anti-Fel d1 VHH): Possible
Tm1 [3, 13]: 41.13
Tm2 [3, 13]: 52.88

B7: SDAB22110-3-2-H08: anti-Fel d1 VHH clone, SEQ ID NO: 53 (protein)
VHH: QVQLVESGGGLVQPGGSLRLSCAASGFTFSRKGMSWYRQVPGKEREWVARIYSTGEKTDYADSVKGRFTISRDNAKNMVYLDMNSLKPEDTAVYYCKAWGYEYWNQGTQVTVSS
EC50 (Fel D1; Epitope Recognized AKMTEEDKENALS (SEQ ID NO: 60)): 5.024 µg/mL
Tagg ø (mean) [3, 9]: 42.30
Tonset ø (mean) [3, 9]: 37.18
Tm ø (mean), first melting point (Tm1) [3, 10]: 47.50
Tagg ([3]; Replicate 1): 42.41
Tonset ([3]; Replicate 1): 37.03
Tm, first melting point (Tm1) [3, 11]: 47.46
Tagg ([3]; Replicate 2): 42.19
Tonset ([3]; Replicate 2): 37.34
Tm, first melting point (Tm1) [3, 12]: 47.53
Tagg ([3]; anti-Fel d1 VHH): 35.68
Tm [3, 13]: 42.43
